Measured values reported in IntAct's records for PubMed 19236849.

B1: NAD-dependent protein deacetylase sirtuin-1 (Homo sapiens), Q96EB6 (parent)
chain: MADEAALALQPGGSPSAAGADREAASSPAGEPLRKRPRRDGPGLERSPGEPGGAAPEREVPAAARGCPGAAAAALWREAEAEAAAAGGEQEAQATAAAGEGDNGPGLQGPSREPPLADNLYDEDDDDEGEEEEEAAAAAIGYRDNLLFGDEIITNGFHSCESDEEDRASHASSSDWTPRPRIGPYTFVQQHLMIGTDPRTILKDLLPETIPPPELDDMTLWQIVINILSEPPKRKKRKDINTIEDAVKLLQECKKIIVLTGAGVSVSCGIPDFRSRDGIYARLAVDFPDLPDPQAMFDIEYFRKDPRPFFKFAKEIYPGQFQPSLCHKFIALSDKEGKLLRNYTQNIDTLEQVAGIQRIIQCHGSFATASCLICKYKVDCEAVRGDIFNQVVPRCPRCPADEPLAIMKPEIVFFGENLPEQFHRAMKYDKDEVDLLIVIGSSLKVRPVALIPSSIPHEVPQILINREPLPHLHFDVELLGDCDVIINELCHRLGGEYAKLCCNPVKLSEITEKPPRTQKELAYLSELPPTPLHVSEDSSSPERTSPPDSSVIVTLLDQAAKSNDDLDVSESKGCMEEKPQEVQTSRNVESIAEQMENPDLKNVGSSTGEKNERTSVAGTVRKCWPNRVAKEQISRRLDGNQYLFLPPNRYIFHGAEVYSDSEDDVLSSSSCGSNSDSGTCQSPSLEEPMEDESEIEEFYNGLEDEPDVPERAGGAGFGTDGDDQEAINEAISVKQEVTDMNYPSNKS

Variants of: B1
Conditions: with csk21_human CSNK2A1, P68400
Sequence of csk21_human CSNK2A1, P68400 (P68400 whole entry, looked up): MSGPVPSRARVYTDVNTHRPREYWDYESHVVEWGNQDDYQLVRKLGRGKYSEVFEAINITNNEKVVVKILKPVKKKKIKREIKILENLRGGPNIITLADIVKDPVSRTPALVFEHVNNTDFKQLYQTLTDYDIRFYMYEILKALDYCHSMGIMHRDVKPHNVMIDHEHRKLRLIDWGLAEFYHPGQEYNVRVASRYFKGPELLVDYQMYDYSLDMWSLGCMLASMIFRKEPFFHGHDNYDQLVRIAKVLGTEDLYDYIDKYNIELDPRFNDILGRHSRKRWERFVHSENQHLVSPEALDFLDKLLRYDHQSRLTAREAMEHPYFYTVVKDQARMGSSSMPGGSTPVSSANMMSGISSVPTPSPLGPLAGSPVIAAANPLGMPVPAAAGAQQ

Variant | effect of a mutation on the interaction
S659A;S661A | decreasing interaction
